How the values were obtained:
[1] = molecular target: p53-like peptide W23A, displayed on E. coli; test: flow cytometry on cells
[2] = molecular target: p53-like peptide F19A, displayed on E. coli; test: flow cytometry on cells

relative Kd (against the wild type p53-like peptide) [1]: > 10000
relative Kd (against the wild type p53-like peptide) [2]: > 10000
Substance: Mdm2-GST (from UniProt Q00987 1-491) (natural protein)
